Measured values as given in patent US20200123228A1.
Read-outs that look alike come from different tables or passages of the source.

Experiments:
[1] = biological target: rmCTLA4 (mouse) (UniProt P09793); test: ELISA
[2] = biological target: rmCTLA4 (mouse) (UniProt P09793); test: ELISA; remark: listed apart in the source
[3] = biological target: Fibronectin (human) (UniProt P02751); test: ELISA
[4] = biological target: Collagen I (human) (UniProt P02452); test: ELISA
[5] = biological target: rmCTLA4 (mouse) (UniProt P09793); test: ELISA; remark: listed apart in the source
[6] = biological target: bovine collagen (Symatese), polymerized gel (bovine); test: retention on polymerized bovine collagen gel, antibody loaded at 10 µg/mL, released antibody measured by ELISA

Chain of rmCTLA4 (mouse) (P09793 36-162): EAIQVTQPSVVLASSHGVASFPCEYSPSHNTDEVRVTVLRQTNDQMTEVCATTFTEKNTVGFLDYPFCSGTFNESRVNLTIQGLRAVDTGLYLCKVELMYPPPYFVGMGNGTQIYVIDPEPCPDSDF
Chain of Fibronectin (human) (P02751 32-2477): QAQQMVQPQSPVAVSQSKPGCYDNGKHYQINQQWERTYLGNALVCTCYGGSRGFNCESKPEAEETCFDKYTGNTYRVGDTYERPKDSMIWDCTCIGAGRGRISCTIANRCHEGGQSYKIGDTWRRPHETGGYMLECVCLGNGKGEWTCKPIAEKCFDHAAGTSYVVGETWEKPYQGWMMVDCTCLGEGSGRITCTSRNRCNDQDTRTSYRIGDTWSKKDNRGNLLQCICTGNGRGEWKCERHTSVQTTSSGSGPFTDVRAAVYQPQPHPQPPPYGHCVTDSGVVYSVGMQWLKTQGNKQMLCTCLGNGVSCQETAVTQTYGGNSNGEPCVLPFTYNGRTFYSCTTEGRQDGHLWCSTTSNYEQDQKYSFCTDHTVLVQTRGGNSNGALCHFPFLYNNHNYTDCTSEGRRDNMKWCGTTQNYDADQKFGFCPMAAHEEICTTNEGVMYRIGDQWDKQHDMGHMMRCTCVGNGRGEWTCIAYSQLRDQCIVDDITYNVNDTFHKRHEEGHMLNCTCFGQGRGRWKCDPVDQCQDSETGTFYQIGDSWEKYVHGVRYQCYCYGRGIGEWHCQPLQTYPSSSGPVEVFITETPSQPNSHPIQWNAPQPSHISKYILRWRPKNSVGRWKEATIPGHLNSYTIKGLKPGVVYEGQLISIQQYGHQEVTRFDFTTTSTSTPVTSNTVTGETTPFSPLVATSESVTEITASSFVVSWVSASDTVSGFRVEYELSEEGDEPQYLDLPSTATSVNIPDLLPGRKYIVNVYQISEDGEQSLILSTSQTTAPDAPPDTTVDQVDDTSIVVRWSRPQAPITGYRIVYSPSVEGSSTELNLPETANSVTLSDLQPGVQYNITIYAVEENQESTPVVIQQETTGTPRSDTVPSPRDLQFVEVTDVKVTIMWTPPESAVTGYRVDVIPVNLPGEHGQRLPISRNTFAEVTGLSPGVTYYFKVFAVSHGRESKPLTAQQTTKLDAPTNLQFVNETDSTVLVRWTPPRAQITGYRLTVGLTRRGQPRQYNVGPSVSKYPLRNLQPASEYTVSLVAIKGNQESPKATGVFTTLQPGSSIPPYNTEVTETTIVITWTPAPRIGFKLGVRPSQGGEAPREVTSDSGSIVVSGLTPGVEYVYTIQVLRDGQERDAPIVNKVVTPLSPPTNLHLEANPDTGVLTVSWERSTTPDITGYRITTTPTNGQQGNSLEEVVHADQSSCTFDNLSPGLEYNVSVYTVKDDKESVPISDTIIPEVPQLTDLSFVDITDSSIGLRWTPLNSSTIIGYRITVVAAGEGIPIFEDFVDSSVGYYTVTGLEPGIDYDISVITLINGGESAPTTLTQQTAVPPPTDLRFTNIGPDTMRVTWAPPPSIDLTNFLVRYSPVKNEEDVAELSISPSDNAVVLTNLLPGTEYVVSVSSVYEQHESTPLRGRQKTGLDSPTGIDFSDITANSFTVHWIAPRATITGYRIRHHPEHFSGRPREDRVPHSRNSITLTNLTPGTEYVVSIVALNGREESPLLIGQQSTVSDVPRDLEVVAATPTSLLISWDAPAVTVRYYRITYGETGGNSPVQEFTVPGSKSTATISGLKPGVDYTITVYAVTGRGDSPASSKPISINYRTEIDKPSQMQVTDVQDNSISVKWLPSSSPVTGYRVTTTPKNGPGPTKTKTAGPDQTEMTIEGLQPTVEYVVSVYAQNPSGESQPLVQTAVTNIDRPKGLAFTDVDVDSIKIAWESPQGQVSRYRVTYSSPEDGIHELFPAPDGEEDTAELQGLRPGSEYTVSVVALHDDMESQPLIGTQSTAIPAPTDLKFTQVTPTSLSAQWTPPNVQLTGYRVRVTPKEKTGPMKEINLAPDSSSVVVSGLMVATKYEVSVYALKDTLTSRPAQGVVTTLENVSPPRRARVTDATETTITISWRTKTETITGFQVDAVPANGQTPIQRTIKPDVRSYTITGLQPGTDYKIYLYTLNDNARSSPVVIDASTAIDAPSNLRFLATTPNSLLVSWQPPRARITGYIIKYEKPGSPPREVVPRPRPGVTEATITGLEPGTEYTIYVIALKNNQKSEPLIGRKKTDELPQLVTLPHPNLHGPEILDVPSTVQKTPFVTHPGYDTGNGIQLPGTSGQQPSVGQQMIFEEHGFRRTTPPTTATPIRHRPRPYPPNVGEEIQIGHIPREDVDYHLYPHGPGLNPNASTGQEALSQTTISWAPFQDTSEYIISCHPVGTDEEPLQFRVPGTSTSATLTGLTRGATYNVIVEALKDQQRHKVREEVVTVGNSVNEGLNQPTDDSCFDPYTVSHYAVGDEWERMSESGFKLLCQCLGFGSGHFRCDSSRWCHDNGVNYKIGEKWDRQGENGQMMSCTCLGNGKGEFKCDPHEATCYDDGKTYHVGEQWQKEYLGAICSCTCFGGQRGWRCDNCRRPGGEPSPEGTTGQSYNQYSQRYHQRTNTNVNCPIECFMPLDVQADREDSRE
Chain of Collagen I (human) (P02452 162-1218, chain 1 of 2): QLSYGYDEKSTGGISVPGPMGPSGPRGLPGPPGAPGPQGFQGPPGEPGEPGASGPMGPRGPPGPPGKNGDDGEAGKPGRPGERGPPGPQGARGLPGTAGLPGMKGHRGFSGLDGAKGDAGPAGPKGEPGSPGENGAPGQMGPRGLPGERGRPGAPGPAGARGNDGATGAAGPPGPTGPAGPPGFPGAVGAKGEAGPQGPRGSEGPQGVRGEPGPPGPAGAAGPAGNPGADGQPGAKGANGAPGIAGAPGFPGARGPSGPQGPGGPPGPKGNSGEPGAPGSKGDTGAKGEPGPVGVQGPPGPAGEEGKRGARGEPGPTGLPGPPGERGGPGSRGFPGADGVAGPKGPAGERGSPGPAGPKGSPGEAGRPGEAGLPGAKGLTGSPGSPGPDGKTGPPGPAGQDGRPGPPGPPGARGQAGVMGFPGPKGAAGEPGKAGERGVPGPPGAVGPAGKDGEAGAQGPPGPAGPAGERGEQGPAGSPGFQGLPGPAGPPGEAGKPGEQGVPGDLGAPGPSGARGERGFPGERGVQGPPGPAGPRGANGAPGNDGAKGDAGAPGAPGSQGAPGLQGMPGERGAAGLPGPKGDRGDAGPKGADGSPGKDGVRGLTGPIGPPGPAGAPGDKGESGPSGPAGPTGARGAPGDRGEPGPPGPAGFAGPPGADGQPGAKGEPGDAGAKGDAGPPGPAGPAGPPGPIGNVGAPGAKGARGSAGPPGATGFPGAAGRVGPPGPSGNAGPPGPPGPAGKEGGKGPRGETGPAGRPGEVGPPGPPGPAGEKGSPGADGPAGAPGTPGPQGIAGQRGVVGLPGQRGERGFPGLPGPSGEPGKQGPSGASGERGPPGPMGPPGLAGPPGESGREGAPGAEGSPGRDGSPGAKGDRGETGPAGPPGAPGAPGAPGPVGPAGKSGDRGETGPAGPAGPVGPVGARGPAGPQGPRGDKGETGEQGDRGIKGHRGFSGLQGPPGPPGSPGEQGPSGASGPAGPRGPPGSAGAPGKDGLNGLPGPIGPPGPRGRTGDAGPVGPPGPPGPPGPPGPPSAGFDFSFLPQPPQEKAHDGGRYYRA
Chain of Collagen I (human) (P08123 80-1119, chain 2 of 2, further chain): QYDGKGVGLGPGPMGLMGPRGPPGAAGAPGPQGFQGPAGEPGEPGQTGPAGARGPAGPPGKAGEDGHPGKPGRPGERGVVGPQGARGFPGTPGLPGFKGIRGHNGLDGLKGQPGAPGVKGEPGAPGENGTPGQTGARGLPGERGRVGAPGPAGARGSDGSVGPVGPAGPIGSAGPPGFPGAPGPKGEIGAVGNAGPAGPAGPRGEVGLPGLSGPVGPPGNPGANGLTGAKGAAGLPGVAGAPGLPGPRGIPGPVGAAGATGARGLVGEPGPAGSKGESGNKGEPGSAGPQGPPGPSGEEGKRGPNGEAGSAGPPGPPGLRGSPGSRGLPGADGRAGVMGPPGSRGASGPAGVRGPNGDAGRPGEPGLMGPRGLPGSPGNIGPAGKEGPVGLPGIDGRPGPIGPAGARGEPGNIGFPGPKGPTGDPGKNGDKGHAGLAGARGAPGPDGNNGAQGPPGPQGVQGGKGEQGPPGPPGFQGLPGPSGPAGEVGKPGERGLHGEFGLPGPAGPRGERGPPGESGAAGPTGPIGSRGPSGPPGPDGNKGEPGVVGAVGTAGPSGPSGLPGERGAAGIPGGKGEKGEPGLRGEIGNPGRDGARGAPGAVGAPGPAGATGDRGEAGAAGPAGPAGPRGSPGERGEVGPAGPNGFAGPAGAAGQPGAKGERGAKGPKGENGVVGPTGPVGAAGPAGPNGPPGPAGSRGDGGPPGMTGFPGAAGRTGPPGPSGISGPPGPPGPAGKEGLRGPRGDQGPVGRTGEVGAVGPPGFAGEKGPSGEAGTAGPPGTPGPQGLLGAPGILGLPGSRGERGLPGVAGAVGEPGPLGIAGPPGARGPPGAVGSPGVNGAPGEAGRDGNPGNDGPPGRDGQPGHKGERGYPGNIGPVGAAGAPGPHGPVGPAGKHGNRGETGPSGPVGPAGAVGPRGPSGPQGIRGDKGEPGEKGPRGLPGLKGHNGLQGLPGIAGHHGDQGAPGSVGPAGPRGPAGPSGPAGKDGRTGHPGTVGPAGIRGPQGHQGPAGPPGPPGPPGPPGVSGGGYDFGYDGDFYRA

4F10
Kd [1]: 0.1 nM | Kd [2]: 0.101 nM

9H10
Kd [2]: 15 nM

PlGF-2123-144-4F10
Kd [3]: 4.7 nM | Kd [2]: 0.16 nM | Kd [4]: 26.7 nM | Kd [5]: 0.157 nM

PlGF-2123-144-9H10
Kd [3]: 0.87 nM | Kd [2]: 5.7 nM | Kd [4]: 1.3 nM

rat anti-mouse PD-L1 (clone 10F.9G2), wild-type (antibody)
% of antibody released by plasmin digestion after buffer changes [6]: < 0.1%
